# Biological target: T1, FcγRIa (human, UniProt P12314 16-292)
# T1 construct: extracellular domain; Soluble extracellular domain with C-terminal His tag, expressed in FreeStyle293 cells; analyte in Biacore; also called FcgRI; CD64; not shown: His tag attached to the C terminus
# Experiment: SPR (Biacore), antibody captured on antigen-peptide chip, FcγRIa as analyte; binding activity relative to control GpH7-A5/GpH7-B3/GpL16-k0 (HeCon Ab) x100
# Protocol: Analysis of interaction between objective antibody and the FcγR was carried out using Biacore T100 (GE Healthcare). HBS-EP+ (GE Healthcare) was used as the running buffer, and the measurement temperature was set to 25° C. Chips produced by immobilizing the antigen peptide by the amine coupling method to a Series S Sencor Chip CM5 (GE Healthcare), or alternatively, chips produced by allowing preliminarily biotinylated antigen peptides to interact with and immobilize onto a Series S Sensor Chip SA (certified) (GE Healthcare) were used. Antibodies of interest were captured onto an antigen peptide-immobilized chip, and allowed to interact to each FcγR diluted with running buffer. To regenerate and repeatedly use the chip, the antibodies captured on the chip were washed off by reacting 10 mM glycine-HCl, pH 1.5.
# T1 sequence (P12314 16-292): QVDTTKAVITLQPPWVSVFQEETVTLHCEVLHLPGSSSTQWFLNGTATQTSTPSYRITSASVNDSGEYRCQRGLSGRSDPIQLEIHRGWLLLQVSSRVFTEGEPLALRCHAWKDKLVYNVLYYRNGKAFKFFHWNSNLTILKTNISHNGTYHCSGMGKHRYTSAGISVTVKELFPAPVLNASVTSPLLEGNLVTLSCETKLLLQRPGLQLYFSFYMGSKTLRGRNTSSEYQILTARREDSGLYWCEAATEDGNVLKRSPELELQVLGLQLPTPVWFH
row,He/Con_1a,Binder
1,106 % of control (=100),"GpH7-A5/GpH7-B3 variant T335_20W/GpL16-k0 (heterodimerized antibody, He Ab) (antibody, human IgG1, kappa, Anti-glypican-3 IgG1; alteration only in the GpH7-B3 (K439E) chain; other H chain is GpH7-A5 (D356K/H435R)) heavy 1: not shown heavy 2: not shown light: DIVMTQSPLSLPVTPGEPASISCQASESLVHSNRNTYLHWYLQKPGQSPQLLIYKVSNRFSGVPDRFSGSGSGTDFTLKISRVEAEDVGVYYCSQNTHVPPTFGQGTKVEIERTVAAPSVFIFPPSDEQLKSGTASVVCLLNNFYPREAKVQWKVDNALQSGNSQESVTEQDSKDSTYSLSSTLTLSKADYEKHKVYACEVTHQGLSSPVTKSFNRGEC"
2,104 % of control (=100),"GpH7-A5/GpH7-B3 variant Y296_06M/GpL16-k0 (heterodimerized antibody, He Ab) (antibody, human IgG1, kappa, Anti-glypican-3 IgG1; alteration only in the GpH7-B3 (K439E) chain; other H chain is GpH7-A5 (D356K/H435R)) heavy 1: not shown heavy 2: not shown light: DIVMTQSPLSLPVTPGEPASISCQASESLVHSNRNTYLHWYLQKPGQSPQLLIYKVSNRFSGVPDRFSGSGSGTDFTLKISRVEAEDVGVYYCSQNTHVPPTFGQGTKVEIERTVAAPSVFIFPPSDEQLKSGTASVVCLLNNFYPREAKVQWKVDNALQSGNSQESVTEQDSKDSTYSLSSTLTLSKADYEKHKVYACEVTHQGLSSPVTKSFNRGEC"
3,106 % of control (=100),"GpH7-A5/GpH7-B3 variant Y296_12R/GpL16-k0 (heterodimerized antibody, He Ab) (antibody, human IgG1, kappa, Anti-glypican-3 IgG1; alteration only in the GpH7-B3 (K439E) chain; other H chain is GpH7-A5 (D356K/H435R)) heavy 1: not shown heavy 2: not shown light: DIVMTQSPLSLPVTPGEPASISCQASESLVHSNRNTYLHWYLQKPGQSPQLLIYKVSNRFSGVPDRFSGSGSGTDFTLKISRVEAEDVGVYYCSQNTHVPPTFGQGTKVEIERTVAAPSVFIFPPSDEQLKSGTASVVCLLNNFYPREAKVQWKVDNALQSGNSQESVTEQDSKDSTYSLSSTLTLSKADYEKHKVYACEVTHQGLSSPVTKSFNRGEC"
4,111 % of control (=100),"GpH7-A5/GpH7-B3 variant Y300_13S/GpL16-k0 (heterodimerized antibody, He Ab) (antibody, human IgG1, kappa, Anti-glypican-3 IgG1; alteration only in the GpH7-B3 (K439E) chain; other H chain is GpH7-A5 (D356K/H435R)) heavy 1: not shown heavy 2: not shown light: DIVMTQSPLSLPVTPGEPASISCQASESLVHSNRNTYLHWYLQKPGQSPQLLIYKVSNRFSGVPDRFSGSGSGTDFTLKISRVEAEDVGVYYCSQNTHVPPTFGQGTKVEIERTVAAPSVFIFPPSDEQLKSGTASVVCLLNNFYPREAKVQWKVDNALQSGNSQESVTEQDSKDSTYSLSSTLTLSKADYEKHKVYACEVTHQGLSSPVTKSFNRGEC"
5,112 % of control (=100),"GpH7-A5/GpH7-B3 variant Y300_02A/GpL16-k0 (heterodimerized antibody, He Ab) (antibody, human IgG1, kappa, Anti-glypican-3 IgG1; alteration only in the GpH7-B3 (K439E) chain; other H chain is GpH7-A5 (D356K/H435R)) heavy 1: not shown heavy 2: not shown light: DIVMTQSPLSLPVTPGEPASISCQASESLVHSNRNTYLHWYLQKPGQSPQLLIYKVSNRFSGVPDRFSGSGSGTDFTLKISRVEAEDVGVYYCSQNTHVPPTFGQGTKVEIERTVAAPSVFIFPPSDEQLKSGTASVVCLLNNFYPREAKVQWKVDNALQSGNSQESVTEQDSKDSTYSLSSTLTLSKADYEKHKVYACEVTHQGLSSPVTKSFNRGEC"
6,112 % of control (=100),"GpH7-A5/GpH7-B3 variant Y300_09D/GpL16-k0 (heterodimerized antibody, He Ab) (antibody, human IgG1, kappa, Anti-glypican-3 IgG1; alteration only in the GpH7-B3 (K439E) chain; other H chain is GpH7-A5 (D356K/H435R)) heavy 1: not shown heavy 2: not shown light: DIVMTQSPLSLPVTPGEPASISCQASESLVHSNRNTYLHWYLQKPGQSPQLLIYKVSNRFSGVPDRFSGSGSGTDFTLKISRVEAEDVGVYYCSQNTHVPPTFGQGTKVEIERTVAAPSVFIFPPSDEQLKSGTASVVCLLNNFYPREAKVQWKVDNALQSGNSQESVTEQDSKDSTYSLSSTLTLSKADYEKHKVYACEVTHQGLSSPVTKSFNRGEC"
7,111 % of control (=100),"GpH7-A5/GpH7-B3 variant Y296_20W/GpL16-k0 (heterodimerized antibody, He Ab) (antibody, human IgG1, kappa, Anti-glypican-3 IgG1; alteration only in the GpH7-B3 (K439E) chain; other H chain is GpH7-A5 (D356K/H435R)) heavy 1: not shown heavy 2: not shown light: DIVMTQSPLSLPVTPGEPASISCQASESLVHSNRNTYLHWYLQKPGQSPQLLIYKVSNRFSGVPDRFSGSGSGTDFTLKISRVEAEDVGVYYCSQNTHVPPTFGQGTKVEIERTVAAPSVFIFPPSDEQLKSGTASVVCLLNNFYPREAKVQWKVDNALQSGNSQESVTEQDSKDSTYSLSSTLTLSKADYEKHKVYACEVTHQGLSSPVTKSFNRGEC"
8,105 % of control (=100),"GpH7-A5/GpH7-B3 variant Y296_13S/GpL16-k0 (heterodimerized antibody, He Ab) (antibody, human IgG1, kappa, Anti-glypican-3 IgG1; alteration only in the GpH7-B3 (K439E) chain; other H chain is GpH7-A5 (D356K/H435R)) heavy 1: not shown heavy 2: not shown light: DIVMTQSPLSLPVTPGEPASISCQASESLVHSNRNTYLHWYLQKPGQSPQLLIYKVSNRFSGVPDRFSGSGSGTDFTLKISRVEAEDVGVYYCSQNTHVPPTFGQGTKVEIERTVAAPSVFIFPPSDEQLKSGTASVVCLLNNFYPREAKVQWKVDNALQSGNSQESVTEQDSKDSTYSLSSTLTLSKADYEKHKVYACEVTHQGLSSPVTKSFNRGEC"
9,114 % of control (=100),"GpH7-A5/GpH7-B3 variant Y300_10E/GpL16-k0 (heterodimerized antibody, He Ab) (antibody, human IgG1, kappa, Anti-glypican-3 IgG1; alteration only in the GpH7-B3 (K439E) chain; other H chain is GpH7-A5 (D356K/H435R)) heavy 1: not shown heavy 2: not shown light: DIVMTQSPLSLPVTPGEPASISCQASESLVHSNRNTYLHWYLQKPGQSPQLLIYKVSNRFSGVPDRFSGSGSGTDFTLKISRVEAEDVGVYYCSQNTHVPPTFGQGTKVEIERTVAAPSVFIFPPSDEQLKSGTASVVCLLNNFYPREAKVQWKVDNALQSGNSQESVTEQDSKDSTYSLSSTLTLSKADYEKHKVYACEVTHQGLSSPVTKSFNRGEC"
10,107 % of control (=100),"GpH7-A5/GpH7-B3 variant Y300_11K/GpL16-k0 (heterodimerized antibody, He Ab) (antibody, human IgG1, kappa, Anti-glypican-3 IgG1; alteration only in the GpH7-B3 (K439E) chain; other H chain is GpH7-A5 (D356K/H435R)) heavy 1: not shown heavy 2: not shown light: DIVMTQSPLSLPVTPGEPASISCQASESLVHSNRNTYLHWYLQKPGQSPQLLIYKVSNRFSGVPDRFSGSGSGTDFTLKISRVEAEDVGVYYCSQNTHVPPTFGQGTKVEIERTVAAPSVFIFPPSDEQLKSGTASVVCLLNNFYPREAKVQWKVDNALQSGNSQESVTEQDSKDSTYSLSSTLTLSKADYEKHKVYACEVTHQGLSSPVTKSFNRGEC"

# From patent US20150344570A1 (published 2015)
